Laboratory results published in patent publication US20200010554A1 (TUSK THERAPEUTICS, published 2020).
Where two headings read alike, the source gives them in different places. Values belong to the binder of their own block, whether it stands above or below them.

What was measured:
Test in all cases: flow cytometry titration on Karpas 299 cells, AF647 secondary antibody
[1] = target: T1, human CD25 expressed on cells (Karpas 299, SU-DHL-1, SR-786, in vitro differentiated Treg cells, PBMC) (human, UniProt P01589 22-272)
T1 construct: also called CD25 expressing cells
T1 sequence: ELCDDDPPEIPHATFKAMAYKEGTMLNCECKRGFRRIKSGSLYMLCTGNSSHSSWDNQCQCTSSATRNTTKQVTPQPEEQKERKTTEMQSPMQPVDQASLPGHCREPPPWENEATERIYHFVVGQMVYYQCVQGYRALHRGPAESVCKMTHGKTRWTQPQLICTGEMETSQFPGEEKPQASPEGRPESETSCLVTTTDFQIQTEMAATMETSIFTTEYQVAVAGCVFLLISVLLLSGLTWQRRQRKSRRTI

[2] = target: T1, human CD25 expressed on cells (Karpas …); remark: listed apart in the source
[3] = target: T1, human CD25 expressed on cells (Karpas …); remark: listed apart in the source

EC50 (read off the curve) [1]: ~0.3 µg/mL
B1: Antibody 10 (antibody, V domains shown)
VH: QVQLQESGPGLVKPSETLSLTCTVSGFSLTSYGIQWIRQPPGKGLEWIGVIWAGGSTNYNSALMSRVTISKDNSKNQFSLKLSSVTAADTAVYYCARAYGYDGSWLAYWGQGTLVTVSS
VL: EIVLTQSPATLSLSPGERATLSCRASSSVSYMHWYQQKPGQAPRPLIFATSNLASGIPARFSGSGSGTDFTLTISSLEPEDFAVYYCQQWSSNPPTFGGGTKLEIK
notes: also called Ab10

EC50 (read off the curve) [2]: ~0.3 µg/mL
B2: Antibody 11 (antibody, V domains shown)
VH: QVQLQESGPGLVKPSETLSLTCTVSGFSLTSYGIQWIRQPPGKGLEWIGVIWAGGSTNYNSALMSRVTISKDNSKNQFSLKLSSVTAADTAVYYCARAYGYDGSWLAYWGQGTLVTVSS
VL: QIVLTQSPATLSLSPGERATLSCRASSSVSYMHWYQQKPGQAPRPLIFATSNLASGIPARFSGSGSGTDYTLTISSLEPEDFAVYYCQQWSSNPPTFGGGTKLEIK
notes: also called Ab11

binding result [3]: binds
B3: Antibody 9 (antibody, V domains shown)
VH: EVQLLESGGGLVQPGGSLRLSCAASGFTFSSYGMSWVRQAPGKGLELVSTINGYGDTTYYPDSVKGRFTISRDNAKNTLYLQMNSLRAEDTAVYFCARDRDYGNSYYYALDYWGQGTLVTVSS
VL: QIVLTQSPGTLSLSPGERATLSCRASSSVSFMHWLQQKPGQSPRPLIYATSNLASGIPDRFSGSGSGTDYTLTISRLEPEDFAVYYCQQWSSNPPAFGQGTKLEIK
notes: compared with a human IgG1 isotype control
